According to patent US12331120 (dated 2025):
Where a chain is given by its changes, count along the chain named.

What was measured:
[1] = biological target: mouse PD-L1 (mouse, UniProt Q9EP73); assay: SPR
[2] = biological target: T1, human PD-L1 (human, UniProt Q9NZQ7); assay: SPR
[3] = biological target: T1, human PD-L1; assay: BLI

T1 sequence (Q9NZQ7 19-238): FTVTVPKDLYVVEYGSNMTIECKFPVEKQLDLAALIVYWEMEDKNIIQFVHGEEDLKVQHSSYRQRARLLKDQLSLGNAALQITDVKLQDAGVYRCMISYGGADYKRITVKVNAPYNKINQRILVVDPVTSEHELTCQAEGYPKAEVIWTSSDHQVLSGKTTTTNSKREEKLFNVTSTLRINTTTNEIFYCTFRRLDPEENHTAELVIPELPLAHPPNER
Sequence of mouse PD-L1 (Q9EP73 19-238): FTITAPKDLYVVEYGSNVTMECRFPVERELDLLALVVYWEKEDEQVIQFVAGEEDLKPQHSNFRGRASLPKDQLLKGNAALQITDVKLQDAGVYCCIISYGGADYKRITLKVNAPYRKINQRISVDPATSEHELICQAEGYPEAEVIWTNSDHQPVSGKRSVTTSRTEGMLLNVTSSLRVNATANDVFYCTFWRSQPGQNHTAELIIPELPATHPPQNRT

B1: KL001-13 (antibody, V domains shown)
VH: QVQLVESGAEVKKPGSSVKVSCKASGGTFSSYAISWVRQAPGQGLEWMGRIIPILGIANYAQKFQGRVTVTADKSTSTAYMELSSLRSEDTAVYYCARSGYGYAYGSFDYWGQGTLVTVSS
VL: QLVLTQPPSVSGAPGQTVTISCTGQTIGAGYDVHWYQQLPGAAPKLLIYGNLNRPSGVPDRFSGSKSGTSASLAITDLQAEDEADYYCQSYDSRLGVVFGGGTKLTVL
B1 was tested, and the Kd [1] was about 2.8 nM, the Kd [2] was about 0.0632 nM and the Kd [3] was 0.00489 nM.

B2: KL001 (PL110) (antibody, V domains shown)
VH: B1 VH with G102S
VL: B1 VL with Q25P
With B2 the Kd [3] was 0.0584 nM.
